The record followed here is paper PMC3531375.

The target in this assay is MAP1B light chain 1, C-terminal myc-tag, expressed in COS7 cells (UniProt P15205).
Chain of UniProt P15205 (P15205 2210-2459): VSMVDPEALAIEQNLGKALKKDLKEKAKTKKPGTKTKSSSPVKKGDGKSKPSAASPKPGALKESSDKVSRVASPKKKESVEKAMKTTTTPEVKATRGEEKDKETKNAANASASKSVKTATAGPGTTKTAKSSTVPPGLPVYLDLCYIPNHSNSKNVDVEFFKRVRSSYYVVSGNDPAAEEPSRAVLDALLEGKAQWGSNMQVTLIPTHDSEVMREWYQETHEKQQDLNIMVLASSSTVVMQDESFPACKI

“N-terminal truncated Tiam1 (C1199), C-terminal HA-tag (domain or fragment)”: the Rac1-GTP pulled down by GST-PAK1 CRIB domain from lysates of COS7 cells co-expressing Tiam1 (C1199 HA) and myc-tagged LC1, relative to total Rac1 turned out to be 2 fold.
